Target: NaV1.7 (Homo sapiens, UniProt Q15858)
Assay: Effect of TMEM233 co-expression on use-dependence
Assay type: cell-based
Details: Fig 6l; for Use-dependence, predicted (LS) mean: n = 6
Protocol: Use-dependence experiments were performed on the Patchliner Quattro (Nanion Technologies GmbH, Munich, Germany) using an EPC 10 USB Quadro Patch Clamp Amplifier (HEKA Elektronik GmbH, Lambrecht/Pfalz, Germany) and PatchControlHT 2.01.30 and PatchMaster v2x90.4 beta softwares (HEKA Elektronik GmbH, Lambrecht/Pfalz, Germany). Cells at approximately 70–80% confluency were harvested from T75 flasks using Accutase (Thermofisher, Massachusetts, USA) at room temperature for 2–5 min and resuspended in high-glucose Dulbecco’s Modified Eagle Medium (DMEM) (Sigma-Aldrich, New South Wales, Australia) with 15 mM HEPES (Sigma-Aldrich, NSW, Australia) prior to recovery in the cell hotel of the Patchliner for 10 min. ECS contained (in mM): NaCl 140, KCl 4, CaCl2 2, MgCl2 1, HEPES 10, glucose 5. The pH was adjusted to 7.4 with NaOH, and the osmolarity was 298 mOsm. ICS contained (in mM): CsCl 50, NaCl 10, CsF 60, EGTA 20, HEPES 10. The pH was adjusted to 7.2 with CsOH, and the osmolarity was 285 mOsm. A seal enhancer was used containing (in mM): NaCl 80, KCl 3, MgCl2 10, CaCl2 35, HEPES Na^+ salt 10. The pH was adjusted to 7.4 with HCl, and the osmolarity was 298 mOsm. The seal enhancer was washed off before starting the experiments. HEK293 cells stably expressing hNaV1.7/ β1 or hNaV1.7/ β1/C-HA TMEM233 were used. Consecutive series of 30 depolarizing 20 ms pulses from −90 mV to −20 mV were applied with frequencies of 1 Hz, 2 Hz, 5 Hz, 10 Hz, and 20 Hz. After the experiment ExTxA (100 nM) was applied to confirm TMEM233 expression. The amplitude of the test current was normalized to the current induced by the first pulse of its series, with the last test pulse plotted as a function of frequency for statistical analysis.

Sequence of NaV1.7 (Q15858 whole entry): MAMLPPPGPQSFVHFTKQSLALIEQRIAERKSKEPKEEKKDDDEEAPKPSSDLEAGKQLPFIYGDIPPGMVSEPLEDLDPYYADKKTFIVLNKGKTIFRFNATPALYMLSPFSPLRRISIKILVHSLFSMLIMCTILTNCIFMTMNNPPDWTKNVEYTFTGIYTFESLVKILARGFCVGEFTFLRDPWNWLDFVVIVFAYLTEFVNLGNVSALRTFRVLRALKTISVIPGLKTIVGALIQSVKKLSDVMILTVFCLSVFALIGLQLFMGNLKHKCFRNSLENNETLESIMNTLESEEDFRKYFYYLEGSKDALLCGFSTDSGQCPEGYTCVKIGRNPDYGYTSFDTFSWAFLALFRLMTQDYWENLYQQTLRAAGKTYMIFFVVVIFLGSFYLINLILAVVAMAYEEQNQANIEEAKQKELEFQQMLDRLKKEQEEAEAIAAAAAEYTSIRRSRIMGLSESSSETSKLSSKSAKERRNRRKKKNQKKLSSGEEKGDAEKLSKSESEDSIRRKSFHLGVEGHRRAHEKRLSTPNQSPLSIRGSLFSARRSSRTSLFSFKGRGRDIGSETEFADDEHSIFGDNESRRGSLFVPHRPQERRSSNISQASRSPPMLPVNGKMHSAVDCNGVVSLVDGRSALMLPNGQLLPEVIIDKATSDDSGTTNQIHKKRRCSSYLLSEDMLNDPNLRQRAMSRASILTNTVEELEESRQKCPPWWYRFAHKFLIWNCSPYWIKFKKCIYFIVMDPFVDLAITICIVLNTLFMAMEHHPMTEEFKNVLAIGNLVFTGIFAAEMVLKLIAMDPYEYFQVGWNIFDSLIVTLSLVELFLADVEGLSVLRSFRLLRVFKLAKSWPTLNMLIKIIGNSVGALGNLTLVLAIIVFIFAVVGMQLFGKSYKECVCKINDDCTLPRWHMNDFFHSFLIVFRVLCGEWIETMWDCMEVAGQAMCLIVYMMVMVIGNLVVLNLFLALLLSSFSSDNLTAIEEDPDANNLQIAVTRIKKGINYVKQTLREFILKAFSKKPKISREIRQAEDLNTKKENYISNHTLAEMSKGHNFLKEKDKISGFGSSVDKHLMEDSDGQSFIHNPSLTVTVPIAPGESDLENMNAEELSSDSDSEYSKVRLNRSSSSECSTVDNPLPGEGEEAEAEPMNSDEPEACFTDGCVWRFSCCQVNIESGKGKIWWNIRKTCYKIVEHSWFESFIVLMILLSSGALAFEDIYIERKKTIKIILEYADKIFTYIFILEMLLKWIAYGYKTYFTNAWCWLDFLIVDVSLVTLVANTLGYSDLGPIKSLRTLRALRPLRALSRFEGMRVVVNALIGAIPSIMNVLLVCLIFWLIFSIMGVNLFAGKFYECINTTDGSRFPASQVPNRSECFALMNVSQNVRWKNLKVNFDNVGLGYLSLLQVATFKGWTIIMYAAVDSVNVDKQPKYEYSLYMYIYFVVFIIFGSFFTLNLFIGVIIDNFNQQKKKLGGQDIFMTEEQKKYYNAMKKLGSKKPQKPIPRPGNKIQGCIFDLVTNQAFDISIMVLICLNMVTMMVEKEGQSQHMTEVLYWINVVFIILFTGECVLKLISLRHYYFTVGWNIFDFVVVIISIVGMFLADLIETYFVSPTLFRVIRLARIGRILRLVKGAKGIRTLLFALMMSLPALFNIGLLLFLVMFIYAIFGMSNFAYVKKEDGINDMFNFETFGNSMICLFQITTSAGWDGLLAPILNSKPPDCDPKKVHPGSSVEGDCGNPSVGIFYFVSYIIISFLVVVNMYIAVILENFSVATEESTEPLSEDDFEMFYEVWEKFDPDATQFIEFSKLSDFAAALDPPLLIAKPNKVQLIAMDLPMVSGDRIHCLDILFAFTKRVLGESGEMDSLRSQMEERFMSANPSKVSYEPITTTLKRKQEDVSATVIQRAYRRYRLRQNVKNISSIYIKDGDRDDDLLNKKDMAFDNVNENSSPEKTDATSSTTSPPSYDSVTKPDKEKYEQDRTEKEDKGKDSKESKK
Sequence of NaV1.7 (Q07699 19-218, further chain): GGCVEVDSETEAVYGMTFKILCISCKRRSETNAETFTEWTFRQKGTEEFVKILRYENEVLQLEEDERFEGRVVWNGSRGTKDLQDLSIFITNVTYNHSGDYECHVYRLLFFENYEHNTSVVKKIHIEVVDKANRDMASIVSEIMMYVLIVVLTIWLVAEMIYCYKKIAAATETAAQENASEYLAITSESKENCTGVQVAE

B1: TMEM233 (protein)
chain: MSQYAPSPDFKRALDSSPEANTEDDKTEEDVPMPKNYLWLTIVSCFCPAYPINIVALVFSIMSLNSYNDGDYEGARRLGRNAKWVAIASIIIGLLIIGISCAVHFTRNA
- Use-dependence, predicted (LS) mean diff. (NaV1.7 - NaV1.7 + TMEM233) (1 Hz, Šídák's adjusted P >0.9999, 95% CI -0.1024 to 0.1060): 0.001783
- Use-dependence, predicted (LS) mean diff. (NaV1.7 - NaV1.7 + TMEM233) (2 Hz, Šídák's adjusted P 0.9266, 95% CI -0.07138 to 0.1370): 0.0328
- Use-dependence, predicted (LS) mean diff. (NaV1.7 - NaV1.7 + TMEM233) (5 Hz, Šídák's adjusted P 0.8365, 95% CI -0.06345 to 0.1449): 0.04074
- Use-dependence, predicted (LS) mean diff. (NaV1.7 - NaV1.7 + TMEM233) (10 Hz, Šídák's adjusted P 0.4449, 95% CI -0.04066 to 0.1677): 0.06353
- Use-dependence, predicted (LS) mean diff. (NaV1.7 - NaV1.7 + TMEM233) (20 Hz, Šídák's adjusted P 0.0161 (*), 95% CI 0.01628 to 0.2247): 0.1205
- Use-dependence, predicted (LS) mean (NaV1.7 + TMEM233, 1 Hz, NaV1.7 0.9861, n = 8): 0.9843
- Use-dependence, predicted (LS) mean (NaV1.7 + TMEM233, 2 Hz, NaV1.7 0.9649, n = 8): 0.9321
- Use-dependence, predicted (LS) mean (NaV1.7 + TMEM233, 5 Hz, NaV1.7 0.9335, n = 8): 0.8928
- Use-dependence, predicted (LS) mean (NaV1.7 + TMEM233, 10 Hz, NaV1.7 0.8933, n = 8): 0.8298
- Use-dependence, predicted (LS) mean (NaV1.7 + TMEM233, 20 Hz, NaV1.7 0.8046, n = 8): 0.6842

Source: publication PMC10147923, “Pain-causing stinging nettle toxins target TMEM233 to modulate NaV1.7 function” (Nature Communications, 2023)
